The values that follow come from US20050256058A1.

Assay in all cases: cell-based or functional assay
One assay deals with T1, Caspase-7 (UniProt P55210).
T1 sequence (looked up): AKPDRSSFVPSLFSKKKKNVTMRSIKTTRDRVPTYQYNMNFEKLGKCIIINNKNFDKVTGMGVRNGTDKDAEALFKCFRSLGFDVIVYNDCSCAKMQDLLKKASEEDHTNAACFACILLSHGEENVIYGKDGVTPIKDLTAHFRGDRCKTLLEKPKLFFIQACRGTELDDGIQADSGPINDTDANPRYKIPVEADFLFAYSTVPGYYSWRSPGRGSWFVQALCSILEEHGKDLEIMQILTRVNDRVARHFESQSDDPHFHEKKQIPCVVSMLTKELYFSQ

In another assay the target is Caspase-8 (UniProt Q14790).
A further assay concerns the target T2, Caspase-6 (UniProt P55212).
T2 sequence (looked up): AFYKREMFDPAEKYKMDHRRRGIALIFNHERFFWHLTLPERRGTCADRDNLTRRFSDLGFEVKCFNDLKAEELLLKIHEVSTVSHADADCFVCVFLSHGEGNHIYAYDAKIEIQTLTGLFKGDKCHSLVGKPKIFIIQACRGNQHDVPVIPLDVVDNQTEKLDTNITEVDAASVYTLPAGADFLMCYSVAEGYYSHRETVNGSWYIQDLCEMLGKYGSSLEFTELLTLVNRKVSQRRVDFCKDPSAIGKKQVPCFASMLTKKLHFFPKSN

For the next assay, the target named is T3, Caspase-2 (UniProt P42575).
T3 sequence (looked up): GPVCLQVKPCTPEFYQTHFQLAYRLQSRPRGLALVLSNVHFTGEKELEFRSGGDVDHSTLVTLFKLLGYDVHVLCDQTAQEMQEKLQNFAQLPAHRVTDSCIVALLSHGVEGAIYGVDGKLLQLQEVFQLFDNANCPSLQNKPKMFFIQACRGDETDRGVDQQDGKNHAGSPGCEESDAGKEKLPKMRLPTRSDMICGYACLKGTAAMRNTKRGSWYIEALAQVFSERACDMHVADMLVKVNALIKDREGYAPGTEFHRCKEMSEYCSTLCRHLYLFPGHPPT

The target in a further assay is T4, Caspase-3 (UniProt P42574).
T4 sequence (looked up): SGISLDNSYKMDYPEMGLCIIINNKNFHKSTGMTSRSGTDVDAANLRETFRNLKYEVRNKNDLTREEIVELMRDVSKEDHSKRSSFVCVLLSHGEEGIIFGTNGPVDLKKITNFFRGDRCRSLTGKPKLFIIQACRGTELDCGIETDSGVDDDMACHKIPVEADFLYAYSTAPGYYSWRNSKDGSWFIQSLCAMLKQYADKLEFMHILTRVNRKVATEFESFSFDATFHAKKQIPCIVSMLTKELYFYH

For a further assay, the target named is Caspase-9 (UniProt P55211).
For the next assay, the target named is T5, Caspase-10 (UniProt Q92851).
T5 sequence (looked up): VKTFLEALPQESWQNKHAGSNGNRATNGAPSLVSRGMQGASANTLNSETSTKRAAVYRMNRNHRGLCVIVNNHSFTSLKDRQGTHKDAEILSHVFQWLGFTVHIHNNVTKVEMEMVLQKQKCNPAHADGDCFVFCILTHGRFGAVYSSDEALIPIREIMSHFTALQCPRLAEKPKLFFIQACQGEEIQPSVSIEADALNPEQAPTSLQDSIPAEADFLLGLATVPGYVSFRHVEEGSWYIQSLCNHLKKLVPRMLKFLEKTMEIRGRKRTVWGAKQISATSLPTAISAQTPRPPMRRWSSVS

Another assay has as its target T6, Caspase-8, Q14790.
T6 chain: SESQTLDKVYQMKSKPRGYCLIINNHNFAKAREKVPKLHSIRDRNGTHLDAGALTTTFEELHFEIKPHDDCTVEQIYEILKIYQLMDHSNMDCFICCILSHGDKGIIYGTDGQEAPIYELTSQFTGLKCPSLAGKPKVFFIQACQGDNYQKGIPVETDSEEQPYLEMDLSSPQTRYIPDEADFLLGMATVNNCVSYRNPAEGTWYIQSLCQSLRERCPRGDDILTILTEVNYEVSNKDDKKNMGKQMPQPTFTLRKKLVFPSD

The next assay concerns the target T7, Caspase-7, P55210.
T7 chain: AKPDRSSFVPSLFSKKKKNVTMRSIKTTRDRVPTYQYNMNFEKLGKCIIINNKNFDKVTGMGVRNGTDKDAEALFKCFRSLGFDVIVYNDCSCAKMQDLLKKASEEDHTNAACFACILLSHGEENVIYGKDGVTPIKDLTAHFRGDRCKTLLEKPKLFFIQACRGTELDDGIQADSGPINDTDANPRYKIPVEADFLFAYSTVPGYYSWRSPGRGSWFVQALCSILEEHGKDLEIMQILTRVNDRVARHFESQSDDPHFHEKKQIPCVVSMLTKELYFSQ

A further assay concerns the target T8, Caspase-9, P55211.
T8 chain: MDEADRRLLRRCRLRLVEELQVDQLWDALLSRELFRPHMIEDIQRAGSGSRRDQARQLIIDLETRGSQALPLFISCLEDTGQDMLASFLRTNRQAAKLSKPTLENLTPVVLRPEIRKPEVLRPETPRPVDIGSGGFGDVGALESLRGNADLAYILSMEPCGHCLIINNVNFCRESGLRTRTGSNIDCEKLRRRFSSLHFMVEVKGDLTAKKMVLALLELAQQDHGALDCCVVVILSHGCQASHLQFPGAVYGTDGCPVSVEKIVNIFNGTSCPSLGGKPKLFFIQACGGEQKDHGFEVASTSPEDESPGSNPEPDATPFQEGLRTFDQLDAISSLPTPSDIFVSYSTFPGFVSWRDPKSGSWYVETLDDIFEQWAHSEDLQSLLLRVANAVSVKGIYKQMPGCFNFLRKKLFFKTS

For the next assay, the target named is T9, Caspase-10, Q92851.
T9 chain: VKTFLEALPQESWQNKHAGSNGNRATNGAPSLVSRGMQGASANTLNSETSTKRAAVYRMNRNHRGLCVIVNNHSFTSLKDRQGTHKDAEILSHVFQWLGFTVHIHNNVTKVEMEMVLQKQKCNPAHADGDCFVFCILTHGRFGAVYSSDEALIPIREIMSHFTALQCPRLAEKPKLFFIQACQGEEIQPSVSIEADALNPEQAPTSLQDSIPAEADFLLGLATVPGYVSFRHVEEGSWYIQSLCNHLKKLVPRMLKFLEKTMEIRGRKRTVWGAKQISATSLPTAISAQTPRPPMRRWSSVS

For the next assay, the target named is T10, Caspase-6, P55212.
T10 chain: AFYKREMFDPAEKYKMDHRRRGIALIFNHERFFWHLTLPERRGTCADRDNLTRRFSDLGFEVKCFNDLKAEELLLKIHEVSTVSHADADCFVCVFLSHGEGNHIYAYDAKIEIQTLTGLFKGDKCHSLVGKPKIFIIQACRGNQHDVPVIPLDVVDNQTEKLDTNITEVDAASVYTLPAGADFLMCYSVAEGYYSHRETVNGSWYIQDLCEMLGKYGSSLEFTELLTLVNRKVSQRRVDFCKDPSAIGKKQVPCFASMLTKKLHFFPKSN

The next assay has as its target T11, Caspase-3, P42574.
T11 chain: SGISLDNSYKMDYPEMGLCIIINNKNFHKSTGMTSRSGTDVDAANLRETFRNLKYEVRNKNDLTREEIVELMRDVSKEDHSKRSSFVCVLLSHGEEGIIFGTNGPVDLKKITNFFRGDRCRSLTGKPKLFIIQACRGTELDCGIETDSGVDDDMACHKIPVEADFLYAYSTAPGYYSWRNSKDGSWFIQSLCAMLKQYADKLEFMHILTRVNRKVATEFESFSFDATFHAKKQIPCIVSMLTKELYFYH

Numbered stars: 1 amine (or outer) side, 2 acyl side, 3 side chain; on linkers, the order of the positions; unused ones are H or OH. Square brackets hold non-standard residues; d marks the D form. * marks the point of attachment. CH═CH‑CON(CH3)CH2CH2Ph = CN(CCc1ccccc1)C(=O)/C=C/*; AAsp = aza-Asp, O=C(N(CC(=O)[*:3])N[*:1])[*:2]; CH:CH‑COOEt = CCOC(=O)/C=C/*; CH═CH‑COOEt = CCOC(=O)/C=C/*; Cbz = O=C(OCc1ccccc1)*

B1: Cbz-Val-Glu-Val-AAsp-CH═CH-COOEt (peptide)
peptide: Cbz-VEV[AAsp]-{CH:CH‑COOEt}
SMILES: CCOC(=O)/C=C/C(=O)N(CC(=O)O)NC(=O)[C@@H](NC(=O)[C@H](CCC(=O)O)NC(=O)[C@@H](NC(=O)OCc1ccccc1)C(C)C)C(C)C
For the molecule B1, the k2 with Caspase-7 was determined as 3650 M⁻¹ s⁻¹; in the assay with Caspase-8, 176000 M⁻¹ s⁻¹; with Caspase-6, 83600 M⁻¹ s⁻¹; with Caspase-2, 115 M⁻¹ s⁻¹; with Caspase-3, 41200 M⁻¹ s⁻¹; with Caspase-9, 340 M⁻¹ s⁻¹. This molecule also returned a k2 with Caspase-10 of 6600 M⁻¹ s⁻¹.

B2: Cbz-Asp-Glu-Val-AAsp-CH═CH-CONHCH2Ph (peptide)
peptide: DEVD
modifications: not checked
For B2, the k2 was 78200 M⁻¹ s⁻¹ in the assay with Caspase-8, Q14790; 249000 M⁻¹ s⁻¹ with Caspase-7, P55210; 2010 M⁻¹ s⁻¹ with Caspase-9, P55211; 19400 M⁻¹ s⁻¹ with Caspase-10, Q92851; 3210 M⁻¹ s⁻¹ with Caspase-6, P55212; 1.75e+06 M⁻¹ s⁻¹ with Caspase-3, P42574.

B3: Cbz-Ile-Glu-Thr-AAsp-CH═CH-COOEt (peptide)
peptide: Cbz-IET[AAsp]-{CH═CH‑COOEt}
SMILES: CCOC(=O)/C=C/C(=O)N(CC(=O)O)NC(=O)[C@@H](NC(=O)[C@H](CCC(=O)O)NC(=O)[C@@H](NC(=O)OCc1ccccc1)[C@@H](C)CC)[C@@H](C)O
Regarding B3, the k2 in the assay with Caspase-7 is 530 M⁻¹ s⁻¹; with Caspase-8, 56500 M⁻¹ s⁻¹; in the assay with Caspase-6, 88700 M⁻¹ s⁻¹; with Caspase-2, 300 M⁻¹ s⁻¹; with Caspase-3 it was 6740 M⁻¹ s⁻¹; with Caspase-10, 6900 M⁻¹ s⁻¹.

B4: Cbz-Ile-Glu-Thr-AAsp-CH═CH-CON(CH3)CH2CH2Ph (peptide)
peptide: Cbz-IET[AAsp]-{CH═CH‑CON(CH3)CH2CH2Ph}
SMILES: CC[C@H](C)[C@H](NC(=O)OCc1ccccc1)C(=O)N[C@@H](CCC(=O)O)C(=O)N[C@H](C(=O)NN(CC(=O)O)C(=O)/C=C/C(=O)N(C)CCc1ccccc1)[C@@H](C)O
In the case of B4, the k2 in the assay with Caspase-7 worked out at 1020 M⁻¹ s⁻¹; in the assay with Caspase-8, 60500 M⁻¹ s⁻¹; in the assay with Caspase-2 it was 38 M⁻¹ s⁻¹; with Caspase-3 it was 5480 M⁻¹ s⁻¹; with Caspase-9 it was 760 M⁻¹ s⁻¹; with Caspase-10, 8770 M⁻¹ s⁻¹.

B5: Cbz-Ile-Glu-Thr-AAsp-CH═CH-CONHCH2Ph (peptide)
peptide: Cbz-IET[AAsp]-{CH═CH‑CONHCH2Ph}
For B5, the k2 with Caspase-7 was 100 M⁻¹ s⁻¹; in the assay with Caspase-8, 61300 M⁻¹ s⁻¹; with Caspase-6, 16800 M⁻¹ s⁻¹; in the assay with Caspase-2, 15 M⁻¹ s⁻¹; in the assay with Caspase-3 it was 2250 M⁻¹ s⁻¹; in the assay with Caspase-9, 440 M⁻¹ s⁻¹. Also, in the assay with Caspase-10, the k2 is 503 M⁻¹ s⁻¹.

B6: Cbz-Ile-Glu-Thr-AAsp-CH═CH-CONHCH2CH2Ph (peptide)
peptide: Cbz-IET[AAsp]-{CH═CH‑CONHCH2CH2Ph}
Consider B6, for which the k2 was determined as 440 M⁻¹ s⁻¹ in the assay with Caspase-7; 71000 M⁻¹ s⁻¹ with Caspase-8; 18700 M⁻¹ s⁻¹ in the assay with Caspase-6; 30 M⁻¹ s⁻¹ in the assay with Caspase-2; 4750 M⁻¹ s⁻¹ in the assay with Caspase-3; 615 M⁻¹ s⁻¹ in the assay with Caspase-9. The molecule also yielded a k2 with Caspase-10 of 8290 M⁻¹ s⁻¹.
